Assay results as given in patent US20240116985A1 (published 2024).
Starred links: 1 amine or outer side, 2 acyl side, 3 side chain; linkers in the order of their positions; H or OH if unused. Positions of bridges follow the written chain, without caps; N, C: chain ends. Non-standard residues stand in square brackets, D forms with d. Primed or numbered codes have the meaning given here. PyrS2″ = (S)-3-amino-1-((pent-4-en-1-yloxy)carbonyl)pyrrolidine-3-carboxylic acid (stapling residue), C=CCCCOC(=O)N1CC[C@@](N[*:1])(C(=O)[*:2])C1; B5(16) = 2-amino-2-(pent-4-en-1-yl)hept-6-enoic acid = 2,2-bis(4-pentenyl)glycine (stitching residue), C=CCCCC(CCCC=C)(N[*:1])C(=O)[*:2]; B5(4) = 2,2-bis(4-pentenyl)glycine = 2-amino-2-(pent-4-en-1-yl)hept-6-enoic acid (stitching residue), C=CCCCC(CCCC=C)(N[*:1])C(=O)[*:2]; PyrS2 = (S)-3-amino-1-((pent-4-en-1-yloxy)carbonyl)pyrrolidine-3-carboxylic acid, C=CCCCOC(=O)N1CC[C@@](N[*:1])(C(=O)[*:2])C1; B5 = 2-amino-2-(pent-4-en-1-yl)hept-6-enoic acid, C=CCCCC(CCCC=C)(N[*:1])C(=O)[*:2]; Phe(2-Cl) = N[C@@H](Cc1ccccc1Cl)C(=O)O; Bta = N[C@@H](Cc1csc2ccccc12)C(=O)O; αAllylPro = C=CC[C@@]1(C(=O)O)CCCN1; hSer = N[C@@H](CCO)C(=O)O

T1: full-length beta-Catenin (Uniprot ID P35222) (Homo sapiens (Human), UniProt P35222 1-781)
T1 construct: also called bCat; B-Catenin
T1 sequence: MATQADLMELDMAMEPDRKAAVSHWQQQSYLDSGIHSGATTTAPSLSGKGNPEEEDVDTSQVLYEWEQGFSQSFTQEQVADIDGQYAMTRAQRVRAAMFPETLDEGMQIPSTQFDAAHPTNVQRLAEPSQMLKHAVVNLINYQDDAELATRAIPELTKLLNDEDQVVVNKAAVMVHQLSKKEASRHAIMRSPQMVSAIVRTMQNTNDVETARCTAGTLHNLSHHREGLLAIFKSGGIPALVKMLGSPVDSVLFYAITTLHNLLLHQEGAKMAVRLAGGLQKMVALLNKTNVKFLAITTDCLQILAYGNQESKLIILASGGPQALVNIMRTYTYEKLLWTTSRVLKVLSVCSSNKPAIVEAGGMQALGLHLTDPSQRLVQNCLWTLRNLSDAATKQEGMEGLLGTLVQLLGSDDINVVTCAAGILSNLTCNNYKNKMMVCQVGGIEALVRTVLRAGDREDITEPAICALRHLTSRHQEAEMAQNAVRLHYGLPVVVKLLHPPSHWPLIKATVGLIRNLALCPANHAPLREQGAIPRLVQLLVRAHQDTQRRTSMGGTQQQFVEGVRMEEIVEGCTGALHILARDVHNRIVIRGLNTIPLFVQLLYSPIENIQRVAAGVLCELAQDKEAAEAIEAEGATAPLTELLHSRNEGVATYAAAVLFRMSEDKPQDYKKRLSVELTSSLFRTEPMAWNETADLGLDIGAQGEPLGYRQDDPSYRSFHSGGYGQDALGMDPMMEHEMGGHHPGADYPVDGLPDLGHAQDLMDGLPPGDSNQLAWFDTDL

T2: full-length beta-Catenin (Uniprot ID P35222) (Homo sapiens (Human), UniProt P35222 2-781)
T2 construct: also called bCat; B-Catenin
T2 sequence: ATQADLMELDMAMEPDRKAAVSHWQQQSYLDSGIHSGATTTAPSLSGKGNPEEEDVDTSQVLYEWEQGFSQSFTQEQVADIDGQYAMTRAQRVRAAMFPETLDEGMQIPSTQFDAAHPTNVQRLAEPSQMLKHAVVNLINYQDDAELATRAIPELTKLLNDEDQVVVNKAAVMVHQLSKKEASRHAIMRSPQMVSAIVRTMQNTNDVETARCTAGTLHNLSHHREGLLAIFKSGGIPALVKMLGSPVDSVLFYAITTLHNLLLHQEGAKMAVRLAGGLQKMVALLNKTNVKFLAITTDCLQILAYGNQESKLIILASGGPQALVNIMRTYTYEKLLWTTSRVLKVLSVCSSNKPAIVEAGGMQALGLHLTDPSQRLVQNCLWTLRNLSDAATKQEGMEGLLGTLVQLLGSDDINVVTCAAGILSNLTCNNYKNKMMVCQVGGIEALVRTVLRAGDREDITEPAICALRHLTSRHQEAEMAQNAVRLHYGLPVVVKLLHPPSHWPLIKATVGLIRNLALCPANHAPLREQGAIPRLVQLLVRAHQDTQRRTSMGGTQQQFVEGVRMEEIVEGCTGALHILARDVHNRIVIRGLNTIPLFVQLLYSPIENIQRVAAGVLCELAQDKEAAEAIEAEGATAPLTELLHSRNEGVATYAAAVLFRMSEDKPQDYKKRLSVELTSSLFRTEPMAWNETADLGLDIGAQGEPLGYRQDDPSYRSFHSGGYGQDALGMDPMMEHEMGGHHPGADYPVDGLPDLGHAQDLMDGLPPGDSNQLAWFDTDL

T3: B-cat-Halo (UniProt P35222 1-781)
T3 sequence (looked up): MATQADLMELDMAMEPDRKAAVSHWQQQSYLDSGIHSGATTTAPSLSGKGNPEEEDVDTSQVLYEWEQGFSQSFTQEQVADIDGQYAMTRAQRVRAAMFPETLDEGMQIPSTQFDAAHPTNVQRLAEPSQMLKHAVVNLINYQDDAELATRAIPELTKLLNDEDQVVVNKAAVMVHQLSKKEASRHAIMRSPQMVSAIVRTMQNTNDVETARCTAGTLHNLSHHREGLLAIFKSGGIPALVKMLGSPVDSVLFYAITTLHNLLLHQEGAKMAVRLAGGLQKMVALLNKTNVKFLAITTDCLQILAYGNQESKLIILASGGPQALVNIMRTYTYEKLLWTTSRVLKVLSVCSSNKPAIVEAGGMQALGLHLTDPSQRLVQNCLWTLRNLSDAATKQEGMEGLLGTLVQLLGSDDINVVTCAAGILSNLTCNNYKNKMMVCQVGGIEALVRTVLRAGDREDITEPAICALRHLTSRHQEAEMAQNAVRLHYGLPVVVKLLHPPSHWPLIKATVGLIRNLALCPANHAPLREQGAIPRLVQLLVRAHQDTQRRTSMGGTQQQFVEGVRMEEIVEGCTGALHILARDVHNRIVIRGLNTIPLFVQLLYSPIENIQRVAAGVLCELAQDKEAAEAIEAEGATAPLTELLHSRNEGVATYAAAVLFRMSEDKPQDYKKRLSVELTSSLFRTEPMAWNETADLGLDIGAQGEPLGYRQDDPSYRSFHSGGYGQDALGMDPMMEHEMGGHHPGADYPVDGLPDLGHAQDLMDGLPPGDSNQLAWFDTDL

T4: full-length beta-Catenin (Uniprot ID P35222) (Homo sapiens (Human), UniProt P35222 1-781)
T4 construct: Tags are not described; Also used here as the target of the DLD1 TCF reporter read-out (endogenous beta-catenin in DLD1 cells); also called bCat; B-Catenin
T4 sequence: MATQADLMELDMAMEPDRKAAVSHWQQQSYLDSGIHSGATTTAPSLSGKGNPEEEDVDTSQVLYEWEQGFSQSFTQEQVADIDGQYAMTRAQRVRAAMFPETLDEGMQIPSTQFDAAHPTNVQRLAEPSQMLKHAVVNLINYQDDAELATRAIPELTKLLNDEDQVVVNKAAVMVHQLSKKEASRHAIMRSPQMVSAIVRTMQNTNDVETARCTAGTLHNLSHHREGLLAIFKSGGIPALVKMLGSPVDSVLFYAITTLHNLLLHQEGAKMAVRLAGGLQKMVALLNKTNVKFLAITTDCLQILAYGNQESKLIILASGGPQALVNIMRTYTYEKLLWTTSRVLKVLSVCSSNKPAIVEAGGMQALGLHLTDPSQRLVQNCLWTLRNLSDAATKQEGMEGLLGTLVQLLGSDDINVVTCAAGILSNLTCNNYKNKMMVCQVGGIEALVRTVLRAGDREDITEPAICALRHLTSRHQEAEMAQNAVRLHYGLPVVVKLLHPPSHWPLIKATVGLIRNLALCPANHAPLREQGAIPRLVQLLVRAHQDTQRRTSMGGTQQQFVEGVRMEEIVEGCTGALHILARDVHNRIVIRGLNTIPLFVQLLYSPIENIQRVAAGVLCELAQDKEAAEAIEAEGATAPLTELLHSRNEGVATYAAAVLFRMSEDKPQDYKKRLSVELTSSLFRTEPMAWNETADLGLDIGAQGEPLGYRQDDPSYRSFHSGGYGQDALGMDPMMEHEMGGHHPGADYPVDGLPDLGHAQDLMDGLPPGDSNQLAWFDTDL


Columns and labels:
[1] = target: T1, full-length beta-Catenin (Uniprot ID …); assay: fluorescence polarization competition; peptide titrated against 10 nM full-length beta-catenin + 10 nM 5FAM-TCF4(10-53)
Experimental: (§1) The plate was incubated protected from light for 60 minutes at 20° C. prior to read. Reads were performed on a CLARIOstar plate reader (BMG Labtech) in duplicate, and data were fitted to a 1:1 binding model with hill slope using an in-house script. All provided concentrations are final concentrations.

[2] = target: T2, full-length beta-Catenin (Uniprot ID …); assay: fluorescence polarization competition, 5FAM-TCF4 10-53 probe on full-length beta-catenin
Experimental: as §1

B-cat-Halo = target: T3, B-cat-Halo; assay: cell-based or functional assay
[3] = target: T4, full-length beta-Catenin (Uniprot ID …); assay: fluorescence polarization competition; full-length beta-catenin with 5FAM-TCF4(10-53) probe, peptide titrated
Experimental: as §1

| Binder | EC50 [2] [nM] | NanoBRET Abs IC50 (B-cat-Halo) [nM] | IC50 [3] [nM] | other results |
| --- | --- | --- | --- | --- |
| XDAXDDAAFVXAWQ (not fully specified; N-terminal Ac; PL3 at 1, B5 at 4, S8 at 11 (staples 1-4 and 4-11 by olefin metathesis); C-terminal NH2, Stapled peptide; also called Ac-PL3-Asp-Ala-B5-Asp-Asp-Ala-Ala-Phe-Val-S8-Ala-Trp-Gln-NH2) [I-356] |  |  |  | IC50 [1]: 5000 nM |
| Ac-[αAllylPro]DF[B5]DDAAFS[PyrS2][Phe(2-Cl)][Bta]T-NH2 (staple 1-4, 4-11, Stapled (stitched) peptide by olefin metathesis; E/Z isomer(s) of the staples not assigned) [I-1141] | 13 |  |  |  |
| Ac-[αAllylPro]DF[B5(16)]DDAAFN[PyrS2″][Phe(2-Cl)][Bta]Q-NH2 (staple 1-4, 4-11, also called Ac-PL3-Asp-Phe-B5-Asp-Asp-Ala-Ala-Phe-Asn-PyrS2-2C1F-BztA-Gln-NH2) [I-1041] |  | > 20000 | 8 |  |
| Ac-[αAllylPro]DF[B5(4)]DDAAFS[PyrS2][Phe(2-Cl)][Bta]S-NH2 (staple 1-4, 4-11, also called Ac-PL3-Asp-Phe-B5-Asp-Asp-Ala-Ala-Phe-Ser-PyrS2-2C1F-BztA-Ser-NH2) [I-1051] |  | > 20000 | 14 |  |
| Ac-[αAllylPro]DF[B5(16)]DDAAFN[PyrS2″][Phe(2-Cl)][Bta]S-NH2 (staple 1-4, 4-11, also called Ac-PL3-Asp-Phe-B5-Asp-Asp-Ala-Ala-Phe-Asn-PyrS2-2C1F-BztA-Ser-NH2) [I-1047] |  | 28400 | 5 |  |
| Ac-[αAllylPro]DF[B5(4)]DDAAFT[PyrS2″][Phe(2-Cl)][Bta]S-NH2 (staple 1-4, 4-11, also called Ac-PL3-Asp-Phe-B5-Asp-Asp-Ala-Ala-Phe-Thr-PyrS2-2C1F-BztA-Ser-NH2) [I-1049] |  |  | 6 |  |
| Ac-[αAllylPro]DF[B5(16)]DDAAFT[PyrS2″][Phe(2-Cl)][Bta]Q-NH2 (staple 1-4, 4-11, also called Ac-PL3-Asp-Phe-B5-Asp-Asp-Ala-Ala-Phe-Thr-PyrS2-2C1F-BztA-Gln-NH2) [I-1043] |  | > 20000 | 12 |  |
| Ac-[αAllylPro]DF[B5(16)]DDAAFS[PyrS2″][Phe(2-Cl)][Bta]Q-NH2 (staple 1-4, 4-11, also called Ac-PL3-Asp-Phe-B5-Asp-Asp-Ala-Ala-Phe-Ser-PyrS2-2C1F-BztA-Gln-NH2) [I-1045] |  | 23900 | 5 |  |
| XDAXDDAAFVXAWQ (not fully specified; N-terminal Ac; PL3 at 1, B5 at 4, S8 at 11 (staples 1-4 and 4-11 by olefin metathesis); C-terminal NH2, Stapled peptide; also called Ac-PL3-Asp-Ala-B5-Asp-Asp-Ala-Ala-Phe-Val-S8-Ala-Trp-Gln-NH2) [I-355] |  |  |  | IC50 [1]: 5000 nM |

Second part, led by results:

| EC50 [2] [nM] | NanoBRET Abs IC50 (B-cat-Halo) [nM] | IC50 [3] [nM] | Binder | other results |
| --- | --- | --- | --- | --- |
| 18 |  |  | Ac-[αAllylPro]DF[B5]DDAAFL[PyrS2][Phe(2-Cl)][Bta]T-NH2 (staple 1-4, 4-11, Stapled (stitched) peptide by olefin metathesis; E/Z isomer(s) of the staples not assigned) [I-1145] |  |
| 28 |  |  | Ac-[αAllylPro]DF[B5]DDAAFS[PyrS2][Phe(2-Cl)][Bta]L-NH2 (staple 1-4, 4-11, Stapled (stitched) peptide by olefin metathesis; E/Z isomer(s) of the staples not assigned) [I-1144] |  |
| 33 |  |  | Ac-[αAllylPro]DF[B5]DDAAFL[PyrS2][Phe(2-Cl)][Bta][dT]-NH2 (staple 1-4, 4-11, Stapled (stitched) peptide by olefin metathesis; E/Z isomer(s) of the staples not assigned) [I-1146] |  |
| 12 |  |  | Ac-[αAllylPro]DF[B5]DDAAFS[PyrS2][Phe(2-Cl)][Bta][hSer]-NH2 (staple 1-4, 4-11, Stapled (stitched) peptide by olefin metathesis; E/Z isomer(s) of the staples not assigned) [I-1143] |  |
| 22 |  |  | Ac-[αAllylPro]DF[B5]DDAAFS[PyrS2][Phe(2-Cl)][Bta][dT]-NH2 (staple 1-4, 4-11, Stapled (stitched) peptide by olefin metathesis; E/Z isomer(s) of the staples not assigned) [I-1142] |  |
